In patent CN115368447A (HEFEI TIANGANG IMMUNOLOGY PHARMACEUTICAL CO LTD, dated 2022):

Key:
4-1BB-strep tagII蛋白 = target: T1, 4-1BB-strep tagII蛋白 (Homo sapiens (Human), UniProt Q07011 24-186); assay: ELISA, 4-1BB-strep tagII coated at 2 ug/mL, HRP anti-human IgG, OD450
T1 construct: Soluble 4-1BB with C-terminal strep tag II, made in house; Coated on the ELISA plate at 2 ug/mL; also called 4-1BB蛋白

[1] = target: T2, 4-1BB蛋白 (SEQ ID NO:27), expressed on CHO-K1-4-1BB cells and Jurkat-NFAT-lucia-4-1BB cells (Homo sapiens (Human), UniProt Q07011 24-255); assay: flow cytometry on CHO-K1-4-1BB cells, Alexa-647 anti-human Fc
T2 construct: expressed by lentiviral transduction; also called CHO-K1-4-1BB细胞; Jurkat-NFAT-lucia-4-1BB细胞
T2 sequence (Q07011 24-255 limits assumed): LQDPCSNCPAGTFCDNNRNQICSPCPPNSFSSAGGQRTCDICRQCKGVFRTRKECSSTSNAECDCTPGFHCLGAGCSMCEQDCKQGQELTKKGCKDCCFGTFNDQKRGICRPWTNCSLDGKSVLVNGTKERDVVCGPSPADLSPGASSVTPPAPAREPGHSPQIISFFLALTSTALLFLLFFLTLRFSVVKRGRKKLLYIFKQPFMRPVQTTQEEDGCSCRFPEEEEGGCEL

[2] = target: T3, Nectin-4蛋白 (SEQ ID NO:29), expressed on CHO-K1-Nectin-4 cells and A375-Nectin-4 cells (Homo sapiens (Human), UniProt Q96NY8 32-510); assay: flow cytometry on CHO-K1-Nectin-4 cells, Alexa-647 anti-human Fc
T3 construct: expressed by lentiviral transduction; also called CHO-K1-Nectin-4细胞; A375-Nectin-4细胞
T3 sequence: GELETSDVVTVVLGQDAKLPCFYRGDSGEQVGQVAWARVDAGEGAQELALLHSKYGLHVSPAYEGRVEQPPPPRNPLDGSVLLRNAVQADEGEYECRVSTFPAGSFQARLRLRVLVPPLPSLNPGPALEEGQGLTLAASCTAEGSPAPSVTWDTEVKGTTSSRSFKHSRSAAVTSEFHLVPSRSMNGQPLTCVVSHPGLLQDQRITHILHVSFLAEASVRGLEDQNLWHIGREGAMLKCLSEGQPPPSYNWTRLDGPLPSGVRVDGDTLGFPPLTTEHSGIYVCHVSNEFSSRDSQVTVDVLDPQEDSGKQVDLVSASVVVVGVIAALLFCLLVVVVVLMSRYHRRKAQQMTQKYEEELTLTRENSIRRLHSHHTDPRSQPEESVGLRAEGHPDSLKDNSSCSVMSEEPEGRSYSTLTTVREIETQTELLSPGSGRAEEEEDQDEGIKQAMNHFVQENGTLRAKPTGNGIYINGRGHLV

Measured: binding result

B1: 抗体4-1BB×Nectin-4 (bispecific antibody, human IgG1, kappa, L234A L235A)
scFv: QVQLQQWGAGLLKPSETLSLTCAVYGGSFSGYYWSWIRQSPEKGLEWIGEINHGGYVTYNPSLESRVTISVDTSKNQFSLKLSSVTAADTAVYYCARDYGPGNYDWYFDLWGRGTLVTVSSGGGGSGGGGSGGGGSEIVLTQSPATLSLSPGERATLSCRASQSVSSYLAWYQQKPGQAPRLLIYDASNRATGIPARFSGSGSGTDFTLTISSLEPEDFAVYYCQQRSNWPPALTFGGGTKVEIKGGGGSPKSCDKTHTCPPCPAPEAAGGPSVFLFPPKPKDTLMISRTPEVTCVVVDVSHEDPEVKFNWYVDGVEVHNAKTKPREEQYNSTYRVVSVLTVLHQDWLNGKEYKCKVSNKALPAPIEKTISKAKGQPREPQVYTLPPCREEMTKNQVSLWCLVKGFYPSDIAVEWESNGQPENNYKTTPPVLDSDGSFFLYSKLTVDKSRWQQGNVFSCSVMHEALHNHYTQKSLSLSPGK
heavy: EVQLVESGGGLVQPGGSLRLSCAASGFTFSSYNMNWVRQAPGKGLEWVSYISSSSSTIYYADSVKGRFTISRDNAKNSLSLQMNSLRDEDTAVYYCARAYYYGMDVWGQGTTVTVSSASTKGPSVFPLAPSSKSTSGGTAALGCLVKDYFPEPVTVSWNSGALTSGVHTFPAVLQSSGLYSLSSVVTVPSSSLGTQTYICNVNHKPSNTKVDKKVEPKSCDKTHTCPPCPAPEAAGGPSVFLFPPKPKDTLMISRTPEVTCVVVDVSHEDPEVKFNWYVDGVEVHNAKTKPREEQYNSTYRVVSVLTVLHQDWLNGKEYKCKVSNKALPAPIEKTISKAKGQPREPQVCTLPPSREEMTKNQVSLSCAVKGFYPSDIAVEWESNGQPENNYKTTPPVLDSDGSFFLVSKLTVDKSRWQQGNVFSCSVMHEALHNHYTQKSLSLSPGK
light: DIQMTQSPSSVSASVGDRVTITCRASQGISGWLAWYQQKPGKAPKFLIYAASTLQSGVPSRFSGSGSGTDFTLTISSLQPEDFATYYCQQANSFPPTFGGGTKVEIKRTVAAPSVFIFPPSDEQLKSGTASVVCLLNNFYPREAKVQWKVDNALQSGNSQESVTEQDSKDSTYSLSSTLTLSKADYEKHKVYACEVTHQGLSSPVTKSFNRGEC
notes: Three chains: anti-4-1BB scFv-Fc (knob); human IgG1 Fc with L234A/L235A already contained in the entries; Produced in ExpiCHO, Protein A purified; also called 4-1BB×Nectin-4抗体; 4-1BB×Nectin-4双特异抗体
binds: all assays above
